{
  "source": "patent US20250011380A1",
  "about": "(published 2025)",
  "molecular_target": "TGF-β1 (UniProt P01137 279-390)",
  "sequence (P01137 279-390 limits assumed)": "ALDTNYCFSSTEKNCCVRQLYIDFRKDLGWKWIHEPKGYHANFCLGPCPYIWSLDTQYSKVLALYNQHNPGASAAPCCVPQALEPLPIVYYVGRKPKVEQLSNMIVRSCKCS",
  "experiment": "cell-based or functional assay",
  "note": "Values joined by “and” are separate entries in the source; they are usually repeats but may differ in a detail not shown here. Identical values can stand only once.",
  "data": [
    {"binder": "human recombinant TGFβRII/Fc (Fc fusion, UniProt P37173 23-159, looked up, not shown: a dimerising Fc or GST) TIPPHVQKSVNNDMIVTDNNGAVKFPQLCKFCDVRFSTCDNQKSCMSNCSITSICEKPQEVCVAVWRKNDENITLETVCHDPKLPYHDFILEDAASPKCIMKEKKKPGETFFMCSCSSDECNDNIIFSEEYNTSNPD", "values": [
      {"measurement": "IC50, HEK-Blue TGF-β cells, 0.1 nM TGF-β1", "result": 470, "unit": "pM"},
      {"measurement": "IC50, HEK-Blue TGFβ reporter cells, 0.1 nM TGFβ1", "result": "461 pM and 559 pM"},
      {"measurement": "fold lower TGF-β1 blocking activity than TGFRt15-TGFRs or TGFRt15*-TGFRs", "result": "~10", "unit": "fold"}
    ]}
  ]
}
